Key:
[1] = target: parathyroid hormone receptor (PTHR1); experiment: Biacore (SPR); PTHR + CaCl2; the table names no quantity; upper end of the range
[2] = target: parathyroid hormone receptor (PTHR1); experiment: Biacore (SPR); PTHR + CaCl2; the table names no quantity; lower end of the range
[3] = target: parathyroid hormone receptor (PTHR1); experiment: Biacore (SPR); PTHR - CaCl2; the table names no quantity; lower end of the range
[4] = target: parathyroid hormone receptor (PTHR1); experiment: Biacore (SPR); PTHR - CaCl2; the table names no quantity; upper end of the range
[5] = target: T1, Human CXCR4 (human, UniProt P61073-2 2-356); experiment: membrane binding experiments, displacement of 125I-CXCL12
T1 construct: also called hCXCR4

[6] = target: Cannabinoid Receptor 1 (CB1R); experiment: Biacore (SPR); the table names no quantity, heading 'Binding of clones against CB1R'
[7] = target: T2, Human CXCR7 (human, UniProt P25106 1-362); experiment: phage ELISA and FACS
T2 construct: also called hCXCR7

[8] = target: parathyroid hormone receptor (PTHR1); experiment: Biacore (SPR); PTHR - CaCl2; the table names no quantity
[9] = target: parathyroid hormone receptor (PTHR1); experiment: Biacore (SPR); PTHR + CaCl2; the table names no quantity
[10] = target: parathyroid hormone receptor (PTHR1); experiment: Biacore (SPR); PTHR Fos12; the table names no quantity
[11] = target: T1, Human CXCR4; experiment: displacement of [125I]-CXCL12, membranes from HEK293T cells transiently expressing CXCR4; n=4

Chain of parathyroid hormone receptor (PTHR1) (Q03431 27-593): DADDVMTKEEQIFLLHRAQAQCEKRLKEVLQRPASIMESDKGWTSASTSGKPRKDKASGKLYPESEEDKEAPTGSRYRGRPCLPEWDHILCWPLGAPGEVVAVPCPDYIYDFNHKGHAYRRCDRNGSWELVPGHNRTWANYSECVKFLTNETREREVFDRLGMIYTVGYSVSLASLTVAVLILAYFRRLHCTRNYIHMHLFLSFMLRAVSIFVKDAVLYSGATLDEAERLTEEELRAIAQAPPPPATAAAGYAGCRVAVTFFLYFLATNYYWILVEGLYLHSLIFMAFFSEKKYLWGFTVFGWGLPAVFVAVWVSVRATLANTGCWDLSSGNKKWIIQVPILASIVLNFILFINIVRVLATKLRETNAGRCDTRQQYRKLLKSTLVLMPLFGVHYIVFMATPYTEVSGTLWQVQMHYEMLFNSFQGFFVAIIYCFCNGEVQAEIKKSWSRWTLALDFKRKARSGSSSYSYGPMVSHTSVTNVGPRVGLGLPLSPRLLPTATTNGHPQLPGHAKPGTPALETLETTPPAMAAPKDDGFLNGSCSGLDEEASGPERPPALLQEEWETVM
Chain of Cannabinoid Receptor 1 (CB1R) (P47746 whole entry): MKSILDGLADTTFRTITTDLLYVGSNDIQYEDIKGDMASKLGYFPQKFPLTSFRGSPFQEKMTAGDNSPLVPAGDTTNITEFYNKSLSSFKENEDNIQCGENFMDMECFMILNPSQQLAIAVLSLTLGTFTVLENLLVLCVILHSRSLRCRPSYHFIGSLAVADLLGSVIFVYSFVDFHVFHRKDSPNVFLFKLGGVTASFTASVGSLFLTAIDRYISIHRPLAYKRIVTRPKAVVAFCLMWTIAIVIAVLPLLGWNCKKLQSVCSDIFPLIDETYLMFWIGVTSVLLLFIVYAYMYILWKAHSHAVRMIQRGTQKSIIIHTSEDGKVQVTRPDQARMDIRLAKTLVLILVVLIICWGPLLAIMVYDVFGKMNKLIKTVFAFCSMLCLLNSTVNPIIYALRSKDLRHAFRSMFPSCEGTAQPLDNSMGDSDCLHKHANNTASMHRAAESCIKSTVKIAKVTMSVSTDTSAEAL
T2 sequence (P25106 whole entry): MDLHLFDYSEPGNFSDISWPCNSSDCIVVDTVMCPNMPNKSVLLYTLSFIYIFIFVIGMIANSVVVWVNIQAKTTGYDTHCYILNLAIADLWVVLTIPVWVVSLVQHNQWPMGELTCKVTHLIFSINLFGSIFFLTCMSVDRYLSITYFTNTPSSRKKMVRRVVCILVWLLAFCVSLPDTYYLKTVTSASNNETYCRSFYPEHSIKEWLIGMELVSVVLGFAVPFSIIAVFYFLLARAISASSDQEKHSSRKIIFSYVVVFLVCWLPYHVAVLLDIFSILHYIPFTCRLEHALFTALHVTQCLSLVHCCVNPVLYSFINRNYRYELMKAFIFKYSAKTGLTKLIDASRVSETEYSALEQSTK
T1 sequence (P61073 other isoform, or with tags, fused parts or gaps): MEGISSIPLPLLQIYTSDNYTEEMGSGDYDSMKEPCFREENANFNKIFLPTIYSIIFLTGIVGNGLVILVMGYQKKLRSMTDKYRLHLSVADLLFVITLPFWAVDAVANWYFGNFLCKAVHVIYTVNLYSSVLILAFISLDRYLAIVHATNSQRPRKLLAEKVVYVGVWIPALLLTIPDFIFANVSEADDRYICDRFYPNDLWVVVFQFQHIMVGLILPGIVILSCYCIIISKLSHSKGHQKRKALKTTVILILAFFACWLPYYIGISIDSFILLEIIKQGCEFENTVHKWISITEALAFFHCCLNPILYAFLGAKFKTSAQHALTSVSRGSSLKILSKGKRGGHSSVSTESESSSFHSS

“PTH (1-34) (ligand) (from UniProt P01270 32-65) (peptide)” gave a Kd [1] of 0.2 to 16 nM, a Kd [2] of 0.2 to 16 nM and a Kd [3] of 4 to 23 nM. For the same molecule, the Kd [4] was 4 to 23 nM.

For mAb 12G5 (antibody), the displacement of radiolabeled 125I-CXCL12 [5] was 50%.

B1: LGPMP6_H4 (VHH)
VHH: EVQLVESGGGLVQAGGSLRLACAASGSIFSFNAMGWYRQAPGKQRELLAVITRDGITKYADSVKGRFTISRDNAKNTMYLQMNSLKPEDTAVYYCHTGLPTGRGSHSDYWGQGTQVTVSS
In the case of B1, the Kd [6] is reported as 36 nM.

B2: LGPMP6_B7 (VHH)
VHH: EVQLVESGGGLVQAGGSLRLSCAASGRTLRNYDMGWFRQAPGKEREFVATIRWSTSETYYADSVKGRFTISSDNAKNTVDLQMNSLTPGDTGVYYCAARSVYSYDYNYWGQGTQVTVSS
B2 showed a Kd [6] of 12 nM.

B3: LGPMP5_G11 (VHH)
VHH: EVQLVKSGGGLVQAGGSLRLSCAASGRTLSNYDMGWFRQAPGKEREFVATIRWSTGETYYTDSVKGRFTISKDNTKNTVDLQMNSLTPEDTAVYYCASRSVYSYEYNYWGQGTQVTVSS
B3 gave a Kd [6] of 12 nM.

B4: 08A05 (VHH)
VHH: EVQLVESGGGLVQAGDSLRLSCAASGLTFSNYDMGWFRQAPGKEREFVGASWWSGGAPYYSDSVKGRFTISRDNAKNTVYLQANSLRPEDTAVYYCAAKRLRSFASGGSYDYWGQGTQVTVSS
notes: Group 2 anti-CXCR7 Nanobody; also called Nanobody 08A05
B4: binds [7].

B5: PMPLG23-A3 (VHH)
VHH: EVQLVESGGGLVQAGGSLRLSCAASGLTFSNYAMGWFRQAPGKEREWVASINWSGGSTYYEDSVEGRFTISRDNAKNTVNLQMNSLKPEDTAVYYCAAKRGHYSREYDYWGQGTQVTVSS
In the case of B5, the Kd [8] is reported as 22 nM.

B6: PMPLG22-A3 (VHH)
VHH: EVQLVESGGGLVQAGGSLRLSCAASGNIFANNIMGWYRQPPGKEREFVAHVSHDGDSMYAVSVKGRFAISRKDATNLYLQMNSLKPEDTAIYFCRLLNIPTQGRMEGFWGQGTQVTVSS
With B6 the Kd [8] was 17 nM and the Kd [9] was 9 nM.

B7: PMPLG26-F2 (VHH)
VHH: EVQLVESGGGLVQAGGSLRLSCVASGFSFDDYAIGWFRQAPGQDREPLACITSGGTRNYNPSVMARFRIDRDNSVKTVYLQINTLKPEDTAVYYCSTELDRQGGSAHECREYDTWGQGTQVTVSS
In the case of B7, the Kd [10] is reported as 360 nM and the Kd [9] is reported as 70 nM.

B8: 238D4-20GS-238D4 (VHH)
chain: EVQLMESGGGLVQAGGSLRLSCAASGRTFNNYAMGWFRRAPGKEREFVAAITRSGVRSGVSAIYGDSVKDRFTISRDNAKNTLYLQMNSLKPEDTAVYTCAASAIGSGALRRFEYDYSGQGTQVTVSSGGGGSGGGGSGGGGSGGGGSEVQLMESGGGLVQAGGSLRLSCAASGRTFNNYAMGWFRRAPGKEREFVAAITRSGVRSGVSAIYGDSVKDRFTISRDNAKNTLYLQMNSLKPEDTAVYTCAASAIGSGALRRFEYDYSGQGTQVTVSS
notes: also called L13
With B8 the Ki [11] was 1 nM.

B9: 08A10 (VHH)
VHH: EVQLVESGGGLVQAGGSLRLSCAASGSIFSIAAMGWYRQATGKQRELVATITDGGTTTYADSVKGRVTISRDRSANTVYLAMNNLKPDDTAVYYCYAYLRYTSRVPGDNYWGQGTQVTVSS
notes: Group 2 anti-CXCR7 Nanobody; also called Nanobody 08A10
B9: binds [7].

B10: PMPLG26-A6 (VHH)
VHH: EVQLVESGGGLVQAGGSLRLSCAASRSRSSFDDMGWYRQAPGKQREFVGGITLGGSTIYADSVKGRFTISMDSARNTGYLQMNSLKPEDTAVYYCNAALDGYSGSSWGQGTQVTVSS
With B10 the Kd [8] was 17 nM.

B11: 01C10 (VHH)
VHH: EVQLVESGGGLVQTGASLRLSCAASGRTFSNYAMGWFRQAPGKERERVAAITPRAFTTYYADSVKGRFTISRDNAKNTAYLQMVSLKPEDTAVYYCAAQLVGSGSNLGRQESYAYWGQGTQVTVSS
notes: Group 1 anti-CXCR7 Nanobody; also called Nanobody 01C10
B11: binds [7].

— patent US20130130379A1 (published 2013)
